Assay results from US20150337309A1.

Experiments:
[1] = molecular target: integrin αvβ3 on breast cancer cells (MCF7, 4T1, MDA-MB-231); assay: cell-based or functional assay
[2] = molecular target: integrin αvβ5 on breast cancer cells (MCF7, 4T1, MDA-MB-231); assay: cell-based or functional assay

cell adhesion to periostin-coated wells after treatment with anti-αvβ3 antibody [1]: 50 % of control
cell adhesion to periostin-coated wells after treatment with anti-αvβ5 antibody [2]: 50 % of control
Substance: periostin (recombinant protein purchased from R&D system, as coated on wells or added to cells) (ligand)
